Reference: patent US20150024465A1, “Carbohydrate-Binding Modules of a New Family” (Novozymes A/S, priority 2003, published 2015)

How the values were obtained:
[1] = Competition binding assay with CBMX, Avicel and soluble carbohydrate; settings: for Difference in A280 between samples with and without CBMX added: Avicel 20 mg/ml, 4 hours room temperature; for Share of CBMX kept in solution by the soluble carbohydrate (in words): competition with Avicel
Method: (§1) Affinity of CBMX for a number of soluble carbohydrates was tested in a competition assay by mixing 100 μl CBMX with both Avicel® (400 μl 50 mg/ml in 20 mM Tris, pH 7.5) and the soluble carbohydrate (dissolved in 500 μl 20 mM Tris, pH 7.5). As references, samples without CBMX or soluble carbohydrate added were used. If CBMX has affinity for the soluble carbohydrate it should be able to keep CBMX in solution which can be measured as increase in absorbance at 280 nm compared to sample without soluble carbohydrate added. After 4 hours incubation at room temperature with agitation, samples were centrifuged and absorbance at 280 nm was read using 200 μl supernatant in the well of a microtiter UV plate. Tested soluble carbohydrates were barley β-glucan (Megazyme, low viscosity), lichenan (Megazyme, Icelandic moss), CMC (carboxymethyl cellulose 7LF, Hercules, USA), Xyloglucan (Megazyme, amyloid, from tamarind seed), lupin galactan (Megazyme) and Locust bean gum (Sigma, G-0753).

[2] = Binding of CBMX to PASC (A280 of supernatant); settings: for A280: Absorbance at 280 nm of 200 μl supernatant, absorbance of buffer subtracted: 20 mM Tris pH 7.5, 4 hours room temperature
Method: A similar binding study was performed with PASC (Phosphoric Acid Swollen Cellulose: To 5 g Avicel® moisted with water 150 ml ice-cold 85 ortho-phosphoric acid is added. After 1 hour stirring on ice bath, 500 ml cold acetone is added. The suspension is filtered and washed, first with acetone and then with water). 50 μl purified CBMX was mixed with 500 μl 20 mM Tris, pH 7.5 containing varying amount of PASO (0-10 mg/ml) in an Eppendorf tube. Samples were incubated 4 hours at room temperature with agitation. After centrifugation, 200 μl supernatant was transferred to the well of a microtiter plate and absorbance read at 280 nm.

[3] = Binding of CBMX to Avicel (A280 of supernatant after incubation and centrifugation); settings: shorter incubation time (15 min to 1 hour) compared with 4 hours
[4] = as above; settings: for A280: Absorbance at 280 nm of 200 μl supernatant, absorbance of buffer and Avicel subtracted: 20 mM Tris pH 7.5, 4 hours room temperature
Method: The carbohydrate-binding domain with affinity for Avicel® and purified as described in Example 2 (CBMX) was studied further. 50 μl purified CBMX was mixed with 500 μl 20 mM Tris, pH 7.5 containing varying amount of Avicel® (0-100 mg/ml) in an Eppendorf tube. After 4 hours incubation at room temperature with agitation, the samples were centrifuged. 200 μl supernatant was transferred to the well of a microtiter plate (Costar, UV plate) and absorbance read at 280 nm on a microtiter plate reader (SpectraMax® Plus, Molecular Devices).

[5] = Competition binding assay, references without soluble carbohydrate
Method: as §1

B1: CBMX: Carbohydrate-binding module of Pseudoplectania nigrella GH61 (positions 34-174 of SEQ ID NO:2), expressed in Aspergillus oryzae, purified on Avicel (protein, listed as Pseudoplectania nigrella)
chain: SSGTSNDKAVASSSIAAVDPVTSSVVASVQVPNFTATDVPTFTATDIPTFTATDVPIFTKKPQQPSTLLTRTRTHASVSFVAKPSAFIPKPSASTIPSKPKTPEEVNKCLDAVNACITQAQSSIGGVVNFEPCESQRALCY
[1]; CMC 25 mg/ml
  Difference in A280 between samples with and without CBMX added: 0.129
[1]; CMC
  Share of CBMX kept in solution by the soluble carbohydrate (in words): almost all
[1]; Galactan 20 mg/ml
  Difference in A280 between samples with and without CBMX added: 0.043
[1]; Lichenan 20 mg/ml
  Difference in A280 between samples with and without CBMX added: 0.025
[1]; Locust bean gum 25 mg/ml
  Difference in A280 between samples with and without CBMX added: 0.087
[1]; Xyloglucan 11 mg/ml
  Difference in A280 between samples with and without CBMX added: 0.052
[1]; beta-Glucan 20 mg/ml
  Difference in A280 between samples with and without CBMX added: 0.100
[1]; beta-glucan
  Share of CBMX kept in solution by the soluble carbohydrate (in words): almost all
[1]; galactan
  Affinity of CBMX for the soluble carbohydrate (in words): to some extent
  Share of CBMX kept in solution by the soluble carbohydrate (in words): about half
[1]; lichenan
  Affinity of CBMX for the soluble carbohydrate (in words): no affinity
  Share of CBMX kept in solution by the soluble carbohydrate (in words): does not result in any increase
[1]; locust bean gum
  Share of CBMX kept in solution by the soluble carbohydrate (in words): the majority
[1]; xyloglucan
  Affinity of CBMX for the soluble carbohydrate (in words): to some extent
  Share of CBMX kept in solution by the soluble carbohydrate (in words): about half
[2]; PASC 0.0 mg/ml (CBMX alone)
  A280: Absorbance at 280 nm of 200 μl supernatant, absorbance of buffer subtracted: 0.0753
[2]; PASC 0.625 mg/ml
  A280: Absorbance at 280 nm of 200 μl supernatant, absorbance of buffer subtracted: 0.0682
[2]; PASC 1.25 mg/ml
  A280: Absorbance at 280 nm of 200 μl supernatant, absorbance of buffer subtracted: 0.0710
[2]; PASC 2.5 mg/ml
  A280: Absorbance at 280 nm of 200 μl supernatant, absorbance of buffer subtracted: 0.0618
[2]; PASC 5 mg/ml
  A280: Absorbance at 280 nm of 200 μl supernatant, absorbance of buffer subtracted: 0.0512
[2]; PASC 10 mg/ml
  A280: Absorbance at 280 nm of 200 μl supernatant, absorbance of buffer subtracted: 0.0471
[2]; increasing amount of PASC reduces absorbance of CBMX in the supernatant
  Affinity for PASC (in words): has affinity
[3]
  Completeness of binding to Avicel (in words): less complete binding
[4]; Avicel 0.0 mg/ml (CBMX alone)
  A280: Absorbance at 280 nm of 200 μl supernatant, absorbance of buffer and Avicel subtracted: 0.0768
[4]; Avicel 0.391 mg/ml
  A280: Absorbance at 280 nm of 200 μl supernatant, absorbance of buffer and Avicel subtracted: 0.0777
[4]; Avicel 0.781 mg/ml
  A280: Absorbance at 280 nm of 200 μl supernatant, absorbance of buffer and Avicel subtracted: 0.0808
[4]; Avicel 1.563 mg/ml
  A280: Absorbance at 280 nm of 200 μl supernatant, absorbance of buffer and Avicel subtracted: 0.0799
[4]; Avicel 3.125 mg/ml
  A280: Absorbance at 280 nm of 200 μl supernatant, absorbance of buffer and Avicel subtracted: 0.0729
[4]; Avicel 6.25 mg/ml
  A280: Absorbance at 280 nm of 200 μl supernatant, absorbance of buffer and Avicel subtracted: 0.0637
[4]; Avicel 12.5 mg/ml
  A280: Absorbance at 280 nm of 200 μl supernatant, absorbance of buffer and Avicel subtracted: 0.0540
[4]; Avicel 25 mg/ml
  A280: Absorbance at 280 nm of 200 μl supernatant, absorbance of buffer and Avicel subtracted: 0.0326
[4]; Avicel 50 mg/ml
  A280: Absorbance at 280 nm of 200 μl supernatant, absorbance of buffer and Avicel subtracted: 0.0185
[4]; Avicel 100 mg/ml
  A280: Absorbance at 280 nm of 200 μl supernatant, absorbance of buffer and Avicel subtracted: 0.0095
[4]; highest concentrations of Avicel, 4 hours incubation
  Share of the protein that binds to Avicel (in words): large majority of the protein binds
[4]; summary statement
  Affinity for Avicel (in words): shown to have affinity
[5]; None - Only Avicel (20 mg/ml) and CBMX, no soluble carbohydrate
  Difference in A280 between samples with and without CBMX added: 0.018
[5]; None - Only CBMX, no Avicel
  Difference in A280 between samples with and without CBMX added: 0.108
